Assay results from doi:10.1101/2024.05.27.596091.
Like-named read-outs stand apart in the source and are kept apart here.

Tests used:
αβ-tubulin (bovine) [1] = target: αβ-tubulin (bovine) (UniProt Q6B856); assay: co-sedimentation
αβ-tubulin (bovine) [2] = target: αβ-tubulin (bovine) (UniProt Q6B856); assay: co-sedimentation; remark: listed apart in the source

αβ-tubulin (from UniProt Q6B856 1-445) (complex)
critical concentration for spontaneous nucleation (αβ-tubulin (bovine) [1]): 3.9 µM
critical concentration for spontaneous nucleation (αβ-tubulin (bovine) [2]): 20.7 µM
